In paper PMC6778125, “Cryo-EM structure of the bacterial Ton motor subcomplex ExbB–ExbD provides information on structure and stoichiometry” (Communications Biology, 2019):

How the values were obtained:
ExbD = ExbD (UniProt P0ABV2); assay: cryo-EM structure; single particle cryo-EM of the co-expressed, purified full-length ExbB-ExbD complex in lipid nanodiscs (MSP1E3D1, E. coli polar lipid extract); Tris 25 mM pH7.4 NaCl 200 mM; C1 symmetry, 3.3 Å
[1] = molecular target: the molecule itself; assay: as above

stoichiometry N (ExbD) | Molecule | stoichiometry N [1]
2 | ExbD (from UniProt P0ABV2 1-141) (natural protein) | –
– | ExbB (natural protein, UniProt P0ABU7 1-244, looked up, ExbB, inner membrane subunit of the Ton complex, 244 residues, three TM helices; native exbB, no tag; also called native ExbB; ExbB pentamer; source: reconstituted in lipid nanodiscs (MSP1E3D1, E. coli polar lipid extract)) MGNNLMQTDLSVWGMYQHADIVVKCVMIGLILASVVTWAIFFSKSVEFFNQKRRLKREQQLLAEARSLNQANDIAADFGSKSLSLHLLNEAQNELELSEGSDDNEGIKERTSFRLERRVAAVGRQMGRGNGYLATIGAISPFVGLFGTVWGIMNSFIGIAQTQTTNLAVVAPGIAEALLATAIGLVAAIPAVVIYNVFARQIGGFKAMLGDVAAQVLLLQSRDLDLEASAAAHPVRVAQKLRAG | 5
